Source: publication PMC3744643

How the values were obtained:
Conditions in all cases: 10 mM Tris-HCl pH 7.5, 50 mM NaCl, 1 mM MgCl2, 0.5 mM EDTA, 0.5 mM DTT, 0.05 mg/ml poly(dI-dC), room temperature, 30 min; footprinting: same buffer, then …
[1] = target: T1, His-OpaR (Vibrio parahaemolyticus RIMD 2210633) (UniProt Q79YV4); experiment: DNase I footprinting
T1 sequence: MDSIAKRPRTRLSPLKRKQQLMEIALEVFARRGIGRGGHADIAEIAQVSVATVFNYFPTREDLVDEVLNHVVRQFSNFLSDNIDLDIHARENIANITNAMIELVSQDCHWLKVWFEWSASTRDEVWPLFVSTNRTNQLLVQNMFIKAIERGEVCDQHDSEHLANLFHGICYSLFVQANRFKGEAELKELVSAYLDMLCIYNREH

[2] = test system: T2, His-AphA (Vibrio parahaemolyticus RIMD 2210633), ORF:4cf93ac0; experiment: DNase I footprinting
T2 sequence: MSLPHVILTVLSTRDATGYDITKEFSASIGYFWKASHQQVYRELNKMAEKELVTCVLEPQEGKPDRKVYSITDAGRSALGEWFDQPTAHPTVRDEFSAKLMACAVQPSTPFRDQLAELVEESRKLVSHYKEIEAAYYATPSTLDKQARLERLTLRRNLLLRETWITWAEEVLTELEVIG

[3] = target: T1, His-OpaR (Vibrio parahaemolyticus RIMD 2210633); experiment: EMSA
[4] = test system: T2, His-AphA (Vibrio parahaemolyticus RIMD 2210633), ORF:4cf93ac0; experiment: EMSA

| Sequence | binding [1] | binding [2] | binding [3] | binding [4] |
| --- | --- | --- | --- | --- |
| AGCGGAGTCTTGTTTATTAACGTTTTTAGCGGGTTCAATTGCATTTTCTCTTTTTTGAGTCTTTACAATTTTTGTTTTATCTCCGCTATCGCTGCTATTTATAGATTTGTCTTTATTTTTTTCTTCCATCACAAGGACTCCATATAAATGATGGGGTTAATATATATATTCCTGCTAAATGAAAAATACTTCGGTTAGATTTTCTCG (double strand) [VPA1043 promoter probe (EMSA and footprinting)] | binds | no binding | binds | no binding |
| GAGTTGCTTCATAATAACTATTATTAGTTATAAATATCGCTTAATTTAAATCTAATTTAAAGATATAAAGGAGCGTATTTAAAATGAAGTTTTTGATACATCAATCATTAATTATCATTATTCAGATAATTTAATTAATACGAAATATGTCAATTAATAATGCTCTAGGAGATTAGCATGCAGTCTAATACGTATCTTAAATACGCAGATATTAAAGGTGAAGCGACAGCGGAAC (double strand) [VPA1027 (hcp2) promoter footprinting probe] | binds | no binding | – | – |
| TTGTGGAAACTCGTTATGGTCAATACCAATTTCATGAAAAACCTCGCCAAAGACCTGCTAAATATTTATATATCGATTTTTATAATTAGATTTGAAGCTTTAATTATTAACATTAAGATTAATAGAGTTCTTATAGCTGTTATAAAAACTATTGACGGCATAATGAATCATTTTTTTATCAAAGCAATCATGAATTGTTGAACAATTTTAAATATCCAACCAGGTTCAAATTTTTGACACTCAAACTTTCACCCGTCAA (double strand) [VPA1044 promoter probe (EMSA and footprinting)] | binds | no binding | binds | no binding |
